{"source": "patent US20160017055A1", "about": "(Takeda / Millennium, published 2016)", "binders": {"B1": {"name": "X115-F02 (antibody, human IgG1, kappa, V domains shown)", "VH": "EVQLLESGGGLVQPGGSLRLSCAASGFTFSHYIMMWVRQAPGKGLEWVSGIYSSGGITVYADSVKGRFTISRDNSKNTLYLQMNSLRAEDTAVYYCAYRRIGVPRRDEFDIWGQGTMVTVSS", "VL": "DIQMTQSPSTLSASVGDRVTITCRASQSISSWLAWYQQKPGKAPKLLIYKASTLESGVPSRFSGSGSGTEFTLTISSLQPDDFATYYCQQYNTYWTFGQGTKVEIKR"}}, "biological_target": "T1, plasma kallikrein Mutant 2 (catalytic domain; R551A, Q553A, Y555A, T558A, R560A) (human, UniProt P03952 391-638)", "T1 construct": "Mutations in a subsite of the active site (printed 'S subsite')", "T1 sequence (P03952 391-638 C503S/R551A/Q553A/Y555A/T558A/R560A limits assumed)": "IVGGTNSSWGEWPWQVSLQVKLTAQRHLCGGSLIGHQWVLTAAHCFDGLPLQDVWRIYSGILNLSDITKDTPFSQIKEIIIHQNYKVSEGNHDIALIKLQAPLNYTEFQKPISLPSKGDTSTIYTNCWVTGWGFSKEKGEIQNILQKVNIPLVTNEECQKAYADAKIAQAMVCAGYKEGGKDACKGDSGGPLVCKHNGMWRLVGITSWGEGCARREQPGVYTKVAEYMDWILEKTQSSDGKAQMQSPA", "test": "Ki,app; inhibition of PKal catalytic domain activity, Morrison fit", "description": "Briefly, PKal and a Fab at various concentrations are incubated together for 1 hour at 30° C. A substrate peptide (cleavable by PKal) is then added to this PKal-Fab mixture. The rate of substrate peptide cleavage/proteolysis is then measured, and plotted against the concentrations of the Fab. This plot is then fit to the Morrison equation, which calculates the K_{i,app} value.\nThe inhibitory activity of X₁₁₅-F02 against the wild-type PKal and the mutants were carried out using the method described in Example 2 above and the K_{i,app} values were determined."}
{"binder": "B1", "values": [{"measurement": "fold reduction of inhibitory potency (Ki,app) against wild-type PKal", "value": "~65", "unit": "fold"}]}
